The supplement of paper PMC10567573

B1: TOR1AIP2 (parent)
chain: YTSSQKVSPIQIDGAGRTWQDSDT
B2: TRIM63 (parent)
chain: ANPYWTSRGSSVSMSGGRFRCPTC

Variants of: B1
Assay: protein stability index of a GFP-peptide fusion (GPS, HEK-293T) (PSI 1-6); higher = more stable
Details: c terminus: a fixed tail appended
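Further: lentivirally expressed fusions sorted by FACS into six bins by GFP to DsRed ratio, PSI derived from sequencing read proportions per bin multiplied by bin number.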

Protein stability index: each site, then its substitutions
S4: C 2.78, D 4.57, N 3.65, I 2.92, L 2.84, K 2.36, Y 2.67, E 3.35, G 3.59, R 3.23, V 3.27, F 2.58, H 3.37, Q 3.25, P 3.18, A 3.06, M 2.65, T 3.34
S8: Q 3.17, D 2.9, Y 2.16, C 3.12, G 3.25, I 2.35, P 3.1, H 2.57, T 3.36, A 3.52, N 4, M 3.06, V 2.67, L 2.82, E 4.47, K 3.46, W 3.33, R 2.67, F 2.75
D13: E 3.33, M 2.21, H 2.64, C 2.79, F 1.67, K 2.77, A 3.2, I 2.35, L 2.29, G 3.07
Q5: C 2.13, T 3.6, M 3.86, L 3.58, A 3.08, D 4.04, N 3.04, G 3.38, R 3.35, V 3.31, P 2.96, S 3.87, K 3.45, Y 2.34, H 2.87, E 4.2, I 3.12
I10: T 3.96, G 3.85, A 3.77, Q 4, F 1.85, Y 1.57, L 3.52, W 2.4, D 4.32, N 4.2, S 3.93, H 3.5, P 4.18, R 3.76, C 3.25, V 4.1, K 3.33, M 3.44, E 4.58
Y1: L 4.06, E 5.31, W 3.6, H 5.19, S 4.77, P 4.4, V 4.26, A 3.7, R 4.8, N 4.87, D 4.85, Q 4.64, C 4.22, M 5.05, F 3.02, K 4.86, T 4.68, I 4.3
P9: R 3.37, C 3.02, H 3.22, Q 3.44, T 3.98, I 2.69, A 3.34, F 2.05, K 3.71, V 2.66, G 3.45, N 3.49, L 3.74, D 3.94, M 3.12, S 4.38, E 4.28, Y 2.22
K6: A 3.58, C 3.04, R 3.41, H 3.51, N 3.97, W 3.33, F 3.73, I 3.67, M 3.6, Y 1.31, L 2.9, D 4.86, S 3.51, V 3.52, Q 3.76, T 4.03, G 3.42, E 4.82, P 4.01
S3: L 3.18, E 3.87, W 3.04, N 4.21, D 4.32, Q 3.82, V 3.3, Y 2.81, T 3.08, C 3.55, I 3.13, A 3, M 3.01, P 2.57, F 2.95, R 3.39, K 3.82, H 4.38, G 3.61
V7: M 2.51, L 3.12, T 3.78, S 3.52, R 3.43, G 3.96, Y 1.54, C 2.67, I 2.9, F 3.64, A 3.41, Q 4.19, K 4.03, H 3.58, N 3.97, P 3.6, D 3.67, E 3.46
T2: R 4.72, W 2.83, I 2.58, K 4.83, L 3.94, Y 3.54, G 3.91, P 3.93, S 4.31, A 3.8, D 5.15, H 2.14, N 4.41, C 2.46, F 4.19, Q 3.17, E 4.74, M 3.9
Q11: S 3.73, I 2.72, F 2.06, H 3.67, C 2.47, A 2.96, M 3.16, T 3.56, R 3.11, E 3.81, V 2.84, P 3.93, D 3.96, K 3.95, L 2.8, Y 2.2, N 3.4, W 5.21, G 2.06
I12: W 2.55, Y 3.19, R 3.63, K 3.76, A 3.68, N 3.65, H 4.21, P 3.99, G 4.59, V 2.97, M 3.5, C 2.7, D 4.12, L 3.29, F 3.24, T 3.65, S 3.08, Q 4.03, E 5

Variants of: B2
Assay: as above
Details: c terminus: a fixed tail appended

Protein stability index of substitutions, site by site:
G17: A 1.84, C 1.98
G16: Y 2.24, K 2.1, W 1.8, Q 1.7, D 2.23, M 1.83
R18: E 2.48, F 1.46, G 1.44, I 1.37
R8: V 1.95, N 1.92, Y 1.71, H 1.41, C 1.23
P22: H 2.39
S15: C 2.02, E 2.1, L 2.03, D 2.3
N2: I 3.56, E 2.51, K 1.59, Y 2.14, A 2.08
S10: F 2.56, P 1.75, A 1.68, W 3.35
C21: Y 2.15, M 3.26, E 3.46, L 2.32, W 1.71, N 2.77, T 2.23
S13: Y 2.18, A 1.9, D 2.06
Y4: A 1.33, T 2.17, F 1.57, I 2.8, N 2.34, Q 1.69, D 2.51, G 1.36, V 1.56, E 2.1, R 1.47
A1: Q 1.49, F 2.58, K 2.1, S 2.69, V 2.21
R20: Q 1.84, V 2.13, L 1.51, E 1.74
V12: G 2.1, N 2.03, I 2.46, F 1.64, P 2.78, D 1.67
S11: Y 1.8, K 1.29, L 1.1, F 2.15
T23: D 1.71, M 2.44, F 1.45, Q 1.95, R 2.43
M14: S 2.32, K 1.85, G 1.83
W5: Q 2.62, G 2.45
P3: G 1.18, R 1.84, T 2.08
S7: Q 2.29, P 1.27, Y 1.54, W 2.62, I 3.16, T 1.58
T6: R 2.2, H 2.12, W 1.48, Q 3.06
C24: V 2.3, R 4.13, K 2.84, T 2.69, S 2.88
G9: K 1.98, P 1.76
F19: Y 2.04, R 2.51
